From PMC6290019 (2018)

How the values were obtained:
Im^wt2 [1] = biological target: T1, Im^wt2 (Escherichia coli, UniProt P04482 1-86); assay: SPR
T1 chain: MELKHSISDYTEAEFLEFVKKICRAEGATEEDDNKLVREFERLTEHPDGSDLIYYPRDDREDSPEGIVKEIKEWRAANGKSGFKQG

Im^wt2 [2] = biological target: T1, Im^wt2; assay: value from previous stopped-flow measurements
Im^wt2 [3] = biological target: T1, Im^wt2; assay: SPR
colE^des1 = assay: SPR
Im^wt2 [4] = biological target: T1, Im^wt2; assay: SPR
Im^des8 = biological target: T2, Im^des8; assay: SPR
T2 chain: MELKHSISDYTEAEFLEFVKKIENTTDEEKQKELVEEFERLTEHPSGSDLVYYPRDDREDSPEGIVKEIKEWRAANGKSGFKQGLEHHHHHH

Im^des3 = biological target: T3, Im^des3; assay: SPR
T3 chain: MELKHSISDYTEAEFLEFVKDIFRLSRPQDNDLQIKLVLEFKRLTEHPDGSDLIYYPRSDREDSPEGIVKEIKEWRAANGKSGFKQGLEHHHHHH

[5] = biological target: colE of designed pair 6 (cognate colE of Im^des6); assay: SPR; two-state reaction fit, koff1
[6] = biological target: colE of designed pair 6 (cognate colE of Im^des6); assay: SPR; two-state reaction fit, koff2
[7] = biological target: colE of designed pair 6 (cognate colE of Im^des6); assay: SPR; two-state reaction fit
Im^des7 [8] = biological target: T4, Im^des7; assay: SPR; two-state reaction fit, koff1
T4 chain: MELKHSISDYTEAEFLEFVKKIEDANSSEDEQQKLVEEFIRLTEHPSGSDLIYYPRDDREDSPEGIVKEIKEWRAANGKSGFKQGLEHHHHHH

Im^des7 [9] = biological target: T4, Im^des7; assay: SPR; two-state reaction fit, koff2
[10] = biological target: colE of designed pair 5 (cognate colE of Im^des5); assay: SPR; two-state reaction fit, koff1
[11] = biological target: colE of designed pair 5 (cognate colE of Im^des5); assay: SPR; two-state reaction fit, koff2
[12] = biological target: colE of designed pair 5 (cognate colE of Im^des5); assay: SPR; two-state reaction fit
colE^des2 = assay: SPR
colE^des8 = assay: SPR

B1: colE^wt2 (His127Ala) (enzyme)
chain: MESKRNKPGKATGKGKPVGDKWLDDAGKDSGAPIPDRIADKLRDKEFKNFDDFRKKFWEEVSKDPDLSKQFKGSNKTNIQKGKAPFARKKDQVGGRERFELHHDKPISQDGGVYDMNNIRVTTPKRAIDIHRGK
Kd (Im^wt2 [1]): < 0.1 nM | Kd (Im^wt2 [2]): 0.004 pM | koff (Im^wt2 [3]): 0.00016 s⁻¹

B2: Im^des1 (designed binder)
chain: MELKHSISDYTEAEFLEFVKKIYSKGKLDQKLRWVEEFVRLTEHPSGSDLIYYPRDDREDSPEGIVKEIKEWRAANGKSGFKQGLEHHHHHH
koff (colE^des1): 0.00033 s⁻¹

B3: colE^des3 (designed binder)
chain: MESKRNKPGKATGKGKPVGDKWLDDAGKDSGAPIPDRIADKLRDKEFKNFDDFRKKFWKEVAKDPDLAKQFSKANQRNIKDGNAPFARESDQVGGRTTYELHHDKPISQDGGVYDMNNIRVTTPKRAIDIHRGK
Kd (Im^wt2 [4]): > 100000 nM | Kd (Im^des8): > 100000 nM | koff (Im^des3): 0.019 s⁻¹

B4: Im^des6 (designed binder)
chain: MELKHSISDYTEAEFLEFVKKIFSQGRLEETRPLVEEFERLTEHPDGSDLVYYPRDDREDSPEGIVKEIKEWRAANGKSGFKQGLEHHHHHH
koff [5]: 0.29 s⁻¹ | koff [6]: 0.00026 s⁻¹ | Kd [7]: 161 nM

B5: colE^des7 (designed binder)
chain: MESKRNKPGKATGKGKPVGDKWLDDAGKDSGAPIPDRIADKLRDKEFKNFDDFRKKFWEEVSKDPDLAKQFKRSNRKRIQQGYAPFAPQKDQVGGRTTFELHHDKPISQDGGVYDMNNIRVTTPKRAIDIHRGK
koff (Im^des7 [8]): 0.014 s⁻¹ | koff (Im^des7 [9]): 0.0014 s⁻¹

B6: Im^des5 (designed binder)
chain: MELKHSISDYTEAEFLEFVKKICNTDNENVQFKLVTEFERLTEHPDGSDLIYYPRDDREDSPEGIVKEIKEWRAANGKSGFKQGLEHHHHHH
koff [10]: 0.023 s⁻¹ | koff [11]: 0.0011 s⁻¹ | Kd [12]: 35 nM

B7: Im^des2 (designed binder)
chain: MELKHSISDYTEAEFLEFVKKIYNSTDEEKQKELVTEFERLTEHPSGSDLIYYPRDDREDSPEGIVKEIKEWRAANGKSGFKQGLEHHHHHH
Kd (colE^des2): 0.32 nM | koff (colE^des2): 0.00041 s⁻¹

B8: Im^des4 (designed binder)
chain: MELKHSISDYTEAEFLEFVKKIDLASSGGGGNELLSRALVEEFERLTEHPDGSDLIYYPRDDREDSPEGIVKEIKEWRAANGKSGFKQGLEHHHHHH
Kd (colE^des8): > 100000 nM
